Experimental data: publication PMC5419745 (eLife, 2017)
Like-named read-outs stand apart in the source and are kept apart here.

How the values were obtained:
Assay in all cases: ITC; iTC200, 25°C, 20 mM sodium phosphate, pH 7.4, 150 mM NaCl; both partners dialysed against the same buffer
[1] = target: Hsa NCOA2 CID (TIF2) (human)
[2] = target: Hsa p53TAD (human) (UniProt P04637)
[3] = target: Hsa NCOA3 CID (ACTR) (human) (UniProt Q9Y6Q9)
[4] = target: Hsa ETS-2 PNT (human) (UniProt P15036)
[5] = target: Hsa NCOA1 CID (SRC1) (human)
[6] = target: Hsa NCOA2 CID (TIF2) (human); remark: listed apart in the source
[7] = target: Fish/Tetrapod NCOA3 CID
[8] = target: Hsa NCOA1 CID (SRC1) (human); remark: listed apart in the source
Target sequence in this assay (Q15788 1040-1081): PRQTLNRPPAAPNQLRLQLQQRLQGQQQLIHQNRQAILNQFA

[9] = target: T1, Hsa ETS-2 PNT (human), P15036
T1 chain: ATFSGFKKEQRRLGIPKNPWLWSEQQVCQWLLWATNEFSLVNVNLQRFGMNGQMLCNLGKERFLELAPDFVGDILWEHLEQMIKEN

[10] = target: 1R CID
[11] = target: 1R CID G1080S
[12] = target: 1R CID S1058N
[13] = target: 1R CID S1078Q
[14] = target: T2, Hsa NCOA3 CID (ACTR) (human, UniProt Q9Y6Q9-3 1040-1081); details: both partners purified
T2 construct: numbers count on: splice variant NCOA3-002 (ENST00000371997); pRSET vector; also called human NCOA3 CID; ACTR CID
T2 chain (looked up): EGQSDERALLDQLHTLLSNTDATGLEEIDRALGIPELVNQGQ

[15] = target: T3, Hsa p53TAD (human, UniProt P04637 1-61); details: both partners purified
T3 construct: source: expressed and purified as previously described (Dogan et al., 2015)
T3 sequence (P04637 1-61): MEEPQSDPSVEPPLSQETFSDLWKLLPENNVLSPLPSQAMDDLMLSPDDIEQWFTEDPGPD

[16] = target: T4, Hsa ETS-2 PNT (human, UniProt P15036 85-170); details: both partners purified
T4 construct: pointed (PNT) domain of human ETS-2; also called globular pointed (PNT) domain from human ETS-2; PNT domain of ETS-2; source: expressed and purified as previously described (Dogan et al., 2015)
T4 sequence (looked up): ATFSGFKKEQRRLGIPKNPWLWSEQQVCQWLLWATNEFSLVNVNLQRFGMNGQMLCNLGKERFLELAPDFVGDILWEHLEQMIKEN

Hsa p53TAD (human), sequence (P04637 1-61): as the sequence (P04637 1-61) above

“Hsa CREBBP NCBD A2106Q/Y2108Q (from UniProt Q92793 2062-2109) (domain or fragment)” showed a Kd [1] of 220 nM.

With Hsa p300 NCBD (domain or fragment) the Kd [2] was 9200 nM, the Kd [3] was 110 nM and the Kd [1] was 71 nM. The Kd [4] was 1500 nM and the Kd [5] was 180 nM.

In the case of “Hsa CREBBP NCBD (from UniProt Q92793 2062-2109) (domain or fragment)”, the Kd [1] is reported as 130 nM and the Kd [5] is reported as 330 nM.

Dmel NCBD (domain or fragment) showed a Kd [3] of 37000 nM, a Kd [1] of 22000 nM and a Kd [5] of 5200 nM.

For Pma NCBD (domain or fragment), the Kd [3] was 230 nM, the Kd [1] was 44 nM and the Kd [4] was 1000 nM. It also gave a Kd [5] of 190 nM.

Molecule “Hsa CREBBP NCBD A2106Q (from UniProt Q92793 2062-2109) (domain or fragment)” has a Kd [1] of 100 nM.

“Hsa CREBBP NCBD Y2108Q (from UniProt Q92793 2062-2109) (domain or fragment)” gave a Kd [1] of 210 nM.

For ITPGALQDLLRTLKSPSSPQQQQQVLNILKSNPHLMAAFIKQRTAKYQ (domain or fragment, modifications not checked) [Dre CREBBP NCBD], the Kd [6] was 230 nM, the Kd [7] was 570 nM and the Kd [8] was 290 nM.

Work on IPPNALQDLLRTLKSPSSPQQQQQVLNILKSNPQLMAAFIKQRTAKYQ (domain or fragment, modifications not checked) [Fish/Tetrapod CREBBP NCBD] yielded a Kd [7] of 410 nM and a Kd [9] of 1300 nM.

IPPSALQDLLRTLRSPSSPQQQQQVLNILKSNPQLMAAFIKQRAAKYQ (domain or fragment, modifications not checked) [1R/2R NCBD N2065S] showed a Kd [10] of 130 nM.

Work on IPPSALQDLLRTLRSPSSPQQQQQVLNILKSNPQLMAAFIKQRAARYQ (domain or fragment, modifications not checked) [1R/2R NCBD N2065S K2107R] yielded a Kd [10] of 170 nM and a Kd [11] of 130 nM.

For IPPNALQDLLRTLRSPSSPQQQQQVLNILKSNPQLMAAFIKQRAAKYQ (domain or fragment, modifications not checked) [1R/2R NCBD], the Kd [10] was 200 nM, the Kd [6] was 45 nM and the Kd [11] was 240 nM. It also gave a Kd [12] of 220 nM, a Kd [13] of 250 nM and a Kd [9] of 850 nM. It also gave a Kd [8] of 110 nM.

B1: Hsa CREBBP NCBD (domain or fragment, human)
chain: GSISPSALQDLLRTLKSPSSPQQQQQVLNILKSNPQLMAAFIKQRTAKYV
notes: Gly-Ser left at the N-terminus from the expression construct; NCBD domain of human CREBBP; pRSET vector; also called human CREBBP NCBD
Molecule B1 has a Kd [10] of 380 nM, a Kd [14] of 350 nM and a Kd [15] of 84000 nM. For the same molecule, the Kd [16] was 760 nM.
